Patent US9976134B2, “Thermolysin variants” (Danisco US Inc., priority 2007, dated 2018)
Substitutions are numbered along the chain they refer to. Names and notes keep the numbering of the source.

B1: I156E: single-substitution thermolysin variant (SEQ ID NO:3 numbering) (protein, listed as Geobacillus caldoproteolyticus)
chain: ITGTSTVGVGRGVLGDQKNINTTYSTYYYLQDNTRGNGIFTYDAKYRTTLPGSLWADADNQFFASYDAPAVDAHYYAGVTYDYYKNVHNRLSYDGNNAAIRSSVHYSQGYNNAFWNGSQMVYGDGDGQTFIPLSGGIDVVAHELTHAVTDYTAGLEYQNESGAINEAISDIFGTLVEFYANKNPDWEIGEDVYTPGISGDSLRSMSDPAKYGDPDHYSKRYTGTQDNGGVHINSGIINKAAYLISQGGTHYGVSVVGIGRDKLGKIFYRALTQYLTPTSNFSQLRAAAVQSATDLYGSTSQEVASVKQAFDAVGVK
B2: S065C: single-substitution thermolysin variant (SEQ ID NO:3 numbering) (protein, listed as Geobacillus caldoproteolyticus)
chain: B1 chain with S65C, E156I
B3: A058C: single-substitution thermolysin variant (SEQ ID NO:3 numbering) (protein, listed as Geobacillus caldoproteolyticus)
chain: B1 chain with A58C, E156I
B4: S065V: single-substitution thermolysin variant (SEQ ID NO:3 numbering) (protein, listed as Geobacillus caldoproteolyticus)
chain: B1 chain with S65V, E156I
B5: T006A: single-substitution thermolysin variant (SEQ ID NO:3 numbering) (protein, listed as Geobacillus caldoproteolyticus)
chain: B1 chain with T6A, E156I
B6: Y151A: single-substitution thermolysin variant (SEQ ID NO:3 numbering) (protein, listed as Geobacillus caldoproteolyticus)
chain: B1 chain with Y151A, E156I
B7: S065E: single-substitution thermolysin variant (SEQ ID NO:3 numbering) (protein, listed as Geobacillus caldoproteolyticus)
chain: B1 chain with S65E, E156I
B8: N280S: single-substitution thermolysin variant (SEQ ID NO:3 numbering) (protein, listed as Geobacillus caldoproteolyticus)
chain: B1 chain with E156I, N280S
B9: N280L: single-substitution thermolysin variant (SEQ ID NO:3 numbering) (protein, listed as Geobacillus caldoproteolyticus)
chain: B1 chain with E156I, N280L
B10: A058E: single-substitution thermolysin variant (SEQ ID NO:3 numbering) (protein, listed as Geobacillus caldoproteolyticus)
chain: B1 chain with A58E, E156I
B11: S065W: single-substitution thermolysin variant (SEQ ID NO:3 numbering) (protein, listed as Geobacillus caldoproteolyticus)
chain: B1 chain with S65W, E156I
B12: Q128T: single-substitution thermolysin variant (SEQ ID NO:3 numbering) (protein, listed as Geobacillus caldoproteolyticus)
chain: B1 chain with Q128T, E156I
B13: Q061M: single-substitution thermolysin variant (SEQ ID NO:3 numbering) (protein, listed as Geobacillus caldoproteolyticus)
chain: B1 chain with Q61M, E156I
B14: S065D: single-substitution thermolysin variant (SEQ ID NO:3 numbering) (protein, listed as Geobacillus caldoproteolyticus)
chain: B1 chain with S65D, E156I
B15: N280M: single-substitution thermolysin variant (SEQ ID NO:3 numbering) (protein, listed as Geobacillus caldoproteolyticus)
chain: B1 chain with E156I, N280M
B16: Y151C: single-substitution thermolysin variant (SEQ ID NO:3 numbering) (protein, listed as Geobacillus caldoproteolyticus)
chain: B1 chain with Y151C, E156I
B17: A056E: single-substitution thermolysin variant (SEQ ID NO:3 numbering) (protein, listed as Geobacillus caldoproteolyticus)
chain: B1 chain with A56E, E156I
B18: N280I: single-substitution thermolysin variant (SEQ ID NO:3 numbering) (protein, listed as Geobacillus caldoproteolyticus)
chain: B1 chain with E156I, N280I
B19: Q061E: single-substitution thermolysin variant (SEQ ID NO:3 numbering) (protein, listed as Geobacillus caldoproteolyticus)
chain: B1 chain with Q61E, E156I
B20: A056C: single-substitution thermolysin variant (SEQ ID NO:3 numbering) (protein, listed as Geobacillus caldoproteolyticus)
chain: B1 chain with A56C, E156I
B21: S065P: single-substitution thermolysin variant (SEQ ID NO:3 numbering) (protein, listed as Geobacillus caldoproteolyticus)
chain: B1 chain with S65P, E156I
B22: Q128C: single-substitution thermolysin variant (SEQ ID NO:3 numbering) (protein, listed as Geobacillus caldoproteolyticus)
chain: B1 chain with Q128C, E156I
B23: T049S: single-substitution thermolysin variant (SEQ ID NO:3 numbering) (protein, listed as Geobacillus caldoproteolyticus)
chain: B1 chain with T49S, E156I

Key:
[1] = Stability assay in 25% TIDE 2X detergent without DTPA (residual Abz-AGLA-Nba protease activity); format: physicochemical; settings: 180 min at 50°C; variant residual AGLA activity divided by wild-type residual activity
Experimental: (§1) The stability of thermolysin and variants thereof was measured after incubation under defined conditions in the presence of 25% TIDE® 2× detergent. The initial and residual activity was determined.
(§2) MTPs were obtained from Costar (type 9017) and from Greiner (black plate, type 655076). Test Method Unstressed Conditions:
(§3) First, 20 μl thermolysin containing culture supernatant was diluted with 180 μl MES assay buffer. Then, 20 μl diluted supernatant was diluted further with 180 μl MES assay buffer. Subsequently 10 μl of this dilution was transferred into 190 μl AGLA-substrate solution in a pre-warmed plate (Greiner 655076) at 25° C. Any air bubbles present were blown away and the plate was measured according to the AGLA protease assay protocol described below.
(§4) First, 20 μl of culture supernatant was diluted with 180 μl 27.5% TIDE®+detergent solution and placed in the iEMS shaker. The plate covered with a plate seal was incubated for a total of 60 minutes at 32° C. at 900 rpm. In addition, 20 μl of culture supernatant was diluted with 180 μl 27.5% TIDE®−solution and placed in the iEMS shaker. This plate covered with a plate seal was incubated for a total of 180 minutes at 50° C. at 900 rpm.
(§5) Subsequently after the respective incubations, 20 μl of either of these solutions were diluted with 180 μl MES assay buffer and 10 μl of this dilution were diluted with 190 μl AGLA-substrate solution in a pre-warmed plate (Greiner 655076) at 25° C.
(§6) Fluorescence measurements were taken at excitation of 350 nm and emission of 420 nm. The spectrofluorometer software calculated the reaction rates (=slope) of the increase in fluorescence for each well to a linearly regressed line of (milli-) RFU/min. The ratio of the residual and initial AGLA activity was used to express the 25% TIDE® 2× stability as follows: Percentage of residual activity=[slope of stressed]*100/[slope of unstressed]
(§7) For each sample (thermolysin and variants thereof) the performance index was calculated by dividing the residual activity of the variant by the residual activity of thermolysin. The performance index compared the stability of the variant and the standard thermolysin enzyme (e.g., wild type or parental enzyme), determined under the same conditions.
(§8) In these experiments, the liberation of Abz-AG by protease cleavage of Abz-AGLA-Nba was monitored by fluorescence spectrometry (Ex. 350/Em. 420). The rate of appearance of Abz-AG was a measure of proteolytic activity.
(§9) The Abz-AGLA-Nba assay solution was prepared by adding 1 ml of the Abz-AGLA-Nba stock to 19 ml MES substrate buffer and mixed well for at least 2 minutes. Subsequently the thermolysin or variants thereof containing culture supernatants were diluted with MES assay buffer to a concentration of 1-6 μg protein per ml.
(§10) The assay was performed by adding 10 μl of diluted protease solution to each well, followed by the addition of 190 μl Abz-AGLA-Nba assay solution that was pre-equilibrated for at least 15 minutes at 25° C. The solutions were vigorously mixed, and the liberation of Abz-AG by protease cleavage of Abz-AGLA-Nba was monitored by fluorescence spectrometry at 25° C. in kinetic mode with excitation set at 350 nm and emission set at 420 nm. The rate of appearance of Abz-AG was a measure of proteolytic activity in the samples. The protease activity was expressed as RFU (relative fluorescence units·min^−1).
(§11) As described in Example 1, the stability of thermolysin variants was measured by determining the AGLA activity before and after incubation in the presence of TIDE® 2× heavy duty liquid (HDL) detergent at an elevated temperature. The tables contain the relative stability values compared to wild-type thermolysin, which is the quotient of the variant residual activity divided by the wild-type residual activity. A value greater than one indicates higher stability in the presence of detergent. […]

[2] = Stability assay in 25% TIDE 2X detergent with DTPA (residual Abz-AGLA-Nba protease activity); format: physicochemical; settings: 60 min at 32°C; variant residual AGLA activity divided by wild-type residual activity
Experimental: as §1, §2, §3, §4, §5, §6, §7, §8, §9, §10, §11

Molecule | PI (relative stability), 25% TIDE 2X without DTPA [1] | PI (relative stability), 25% TIDE 2X with DTPA [2]
B1 | 1.09 | 1.58
B2 | 1.14 | 1.05
B3 | 1.01 | 
B4 | 1.08 | 1.08
B5 |  | 1.01
B6 | 1.24 | 1.15
B7 | 1.34 | 1.08
B8 |  | 1.19
B9 |  | 1.21
B10 | 1.24 | 
B11 | 1.09 | 
B12 | 1.15 | 1.18
B13 | 1.01 | 
B14 | 1.20 | 
B15 |  | 1.16
B16 | 1.09 | 1.25
B17 | 1.07 | 
B18 |  | 1.16
B19 | 1.05 | 
B20 | 1.19 | 1.01
B21 | 1.18 | 
B22 | 1.05 | 1.01
B23 | 1.26 | 1.08
